According to patent US11814447B2, “Peptide ligands for binding to EphA2” (BICYCLERD LIMITED, priority 2018, dated 2023):
Starred links: 1 amine or outer side, 2 acyl side, 3 side chain; linkers in the order of their positions; H or OH if unused. Positions of bridges follow the written chain, without caps; N, C: chain ends. Non-standard residues stand in square brackets, D forms with d. Primed or numbered codes have the meaning given here. No end group written: not given here. TBMB′ = 1,3,5-tris(bromomethyl)benzene, 1,3,5-tris(methylene)benzene core, three thioethers to Cys; 1Nal = N[C@@H](Cc1cccc2ccccc12)C(=O)O; TBMB = c1c(C[*:1])cc(C[*:3])cc1C[*:2]; Hyp = O=C(O)[C@@H]1C[C@@H](O)CN1; hArg = N=C(N)NCCCC[C@H](N)C(=O)O; hPhe = N[C@@H](CCc1ccccc1)C(=O)O; 4Pal = N[C@@H](Cc1ccncc1)C(=O)O; Tle = CC(C)(C)[C@H](N)C(=O)O; Aib = CC(C)(N)C(=O)O; Sar = CNCC(=O)O

B1: Bicycle Compound Number 126 (TBMB scaffold) (peptide)
peptide: [Sar][Sar]ACP[1Nal]G[Aib]FWCP[Tle]NRPGC
modifications: linker 4-11-18 via TBMB
notes: also called Sar2-ACP(1Nal)G(Aib)FWCP(tBuGly)NRPGC
B2: Bicycle Compound Number 130 (TBMB scaffold) (peptide)
peptide: [Sar][Sar]ACP[1Nal]GPFWCP[Tle]N[hArg]PGC
modifications: linker 4-11-18 via TBMB
notes: also called Compound 130; Sar2-ACP(1Nal)GPFWCP(tBuGly)N(HArg)PGC
B3: Bicycle Compound Number 127 (TBMB scaffold) (peptide)
peptide: [Sar][Sar]ACP[1Nal]G[Aib]FWCPV[dA]RPGC
modifications: linker 4-11-18 via TBMB
notes: also called Sar2-ACP(1Nal)G(Aib)FWCPV(D-Ala)RPGC
B4: Bicycle Compound Number 131 (TBMB scaffold) (peptide)
peptide: [Sar][Sar]ACP[1Nal]GPFWCP[Tle]NR[Aib]GC
modifications: linker 4-11-18 via TBMB
notes: also called Sar2-ACP(1Nal)GPFWCP(tBuGly)NR(Aib)GC
B5: Bicycle Compound Number 118 (TBMB scaffold) (peptide)
peptide: [Sar][Sar]ACPWGPF[1Nal]CPVNRP[dA]C
modifications: linker 4-11-18 via TBMB
notes: also called Sar2-ACPWGPF(1Nal)CPVNRP(D-Ala)C
B6: Bicycle Compound Number 117 (TBMB scaffold) (peptide)
peptide: [Sar][Sar]ACPWGPF[1Nal]CPV[dA]RPGC
modifications: linker 4-11-18 via TBMB
notes: also called Sar2-ACPWGPF(1Nal)CPV(D-Ala)RPGC
B7: Bicycle Compound Number 121 (TBMB scaffold) (peptide)
peptide: [Sar][Sar]ACP[1Nal]GPFWCP[Tle]NRPGC
modifications: linker 4-11-18 via TBMB
notes: also called Sar2-ACP(1Nal)GPFWCP(tBuGly)NRPGC
B8: Bicycle Compound Number 132 (TBMB scaffold) (peptide)
peptide: [Sar][Sar]ACP[1Nal]GPFWCP[Tle]NRP[dA]C
modifications: linker 4-11-18 via TBMB
notes: also called Sar2-ACP(1Nal)GPFWCP(tBuGly)NRP(D-Ala)C
B9: Bicycle Compound Number 129 (TBMB scaffold) (peptide)
peptide: [Sar][Sar]ACP[1Nal]GPFWCP[Tle][dA]RPGC
modifications: linker 4-11-18 via TBMB
notes: also called Sar2-ACP(1Nal)GPFWCP(tBuGly)(D-Ala)RPGC
B10: Bicycle Compound Number 133 (TBMB scaffold) (peptide)
peptide: [Sar][Sar]ACP[1Nal]GPFWCPV[dA][hArg]PGC
modifications: linker 4-11-18 via TBMB
notes: also called Sar2-ACP(1Nal)GPFWCPV(D-Ala)(HArg)PGC
B11: Bicycle Compound Number 115 (TBMB scaffold) (peptide)
peptide: [Sar][Sar]ACP[1Nal]GPFWCPV[dA]RPGC
modifications: linker 4-11-18 via TBMB
notes: also called Sar2-ACP(1Nal)GPFWCPV(D-Ala)RPGC
B12: Bicycle Compound Number 124 (TBMB scaffold) (peptide)
peptide: [Sar][Sar]AC[Aib][1Nal]GPFWCPV[dA]RPGC
modifications: linker 4-11-18 via TBMB
notes: also called Sar2-AC(Aib)(1Nal)GPFWCPV(D-Ala)RPGC

Columns and labels:
[1] = target: T1, Human EphA2 (Ecto), C-terminal polyHis (Human, UniProt P29317 24-537); assay: fluorescence polarisation competition; competitor fluorescent Compound 66
T1 construct: extracellular domain; also called EPH receptor A2; ephrin type-A receptor 2
T1 sequence (P29317 24-537): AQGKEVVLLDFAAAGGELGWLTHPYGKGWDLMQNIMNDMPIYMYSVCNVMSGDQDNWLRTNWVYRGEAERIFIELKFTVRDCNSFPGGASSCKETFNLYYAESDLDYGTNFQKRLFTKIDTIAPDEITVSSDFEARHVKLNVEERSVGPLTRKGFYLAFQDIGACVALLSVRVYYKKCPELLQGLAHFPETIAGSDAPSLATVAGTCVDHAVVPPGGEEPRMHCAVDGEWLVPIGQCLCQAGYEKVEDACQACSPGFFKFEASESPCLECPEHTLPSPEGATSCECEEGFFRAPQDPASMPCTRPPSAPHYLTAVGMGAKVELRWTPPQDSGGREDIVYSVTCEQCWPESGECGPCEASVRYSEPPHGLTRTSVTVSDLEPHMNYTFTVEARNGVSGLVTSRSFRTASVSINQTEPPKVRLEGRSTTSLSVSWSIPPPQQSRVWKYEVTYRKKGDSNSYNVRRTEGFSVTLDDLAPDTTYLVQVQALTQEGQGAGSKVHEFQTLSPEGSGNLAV
Description: (§1) Peptides without a fluorescent tag were tested in competition with a peptide with a fluorescent tag and a known Kd (Table 2). Peptides were diluted to an appropriate concentration in assay buffer as described in the direct binding assay with a maximum of 5% DMSO, then serially diluted 1 in 2. […] Measurements were conducted as for the direct binding assay, however the gain was determined prior to the first measurement. Data analysis was in Systat Sigmaplot version 12.0 where the mP values were fit to a user defined cubic equation to generate a Ki value: […]

[2] = target: T1, Human EphA2 (Ecto), C-terminal polyHis; assay: fluorescence polarisation competition; competitor fluorescent Compound 18
Description: as §1

[3] = target: Human EphA2 (Ecto) (Human) (UniProt P29317); assay: FP competition, tracer Compound 18
Sequence of Human EphA2 (Ecto) (Human) (P29317 24-537): as above

Binder | Ki [1] | Ki [2] | Ki [3]
B1 | 19 nM | 15 nM | –
Ac-[Sar][Sar]A[dD]VTCP[1Nal]G[Aib]F[1Nal]CP[Tle]NR[Aib]GC (linker 7-14-21 via TBMB) [Bicycle Compound 183] | – | – | 1.02 nM
B2 | – | 0.29 nM | –
[Sar][Sar]AC[Aib][1Nal]G[Aib]FWCPVNR[Aib]GC (linker 4-11-18 via TBMB) [Bicycle Compound Number 135 (TBMB scaffold)] | 30 nM | 43 nM | –
[Sar][Sar]ACPWG[Aib]FWCPVNRPGC (linker 4-11-18 via TBMB′, also called Compound 80) [Bicycle Compound Number 80 (TBMB scaffold)] | 187 nM | 120 nM | –
[Sar][Sar]ACP[1Nal]GPFWCP[Tle]N[hArg][Aib]GC (linker 4-11-18 via TBMB) [Bicycle Compound Number 138 (TBMB scaffold)] | – | 5.1 nM | –
[Sar][Sar]ACPWGP[hPhe]WCPVNRPGC (linker 4-11-18 via TBMB′, also called Compound 87) [Bicycle Compound Number 87 (TBMB scaffold)] | – | 162 nM | –
B3 | 33 nM | 40 nM | –
[Sar][Sar]ACP[1Nal]G[Aib]FWCPVNRP[dA]C (linker 4-11-18 via TBMB) [Bicycle Compound Number 128 (TBMB scaffold)] | 16 nM | 15 nM | –
[Sar][Sar]ACPWG[Aib]F[1Nal]CPVNRPGC (linker 4-11-18 via TBMB) [Bicycle Compound Number 123 (TBMB scaffold)] | 46 nM | 63 nM | –
Ac-[Sar][Sar]A[dD]VTCP[1Nal]G[Aib]F[1Nal]CP[Tle]N[hArg]P[dD]C (linker 7-14-21 via TBMB) [Bicycle Compound 184] | – | – | 1.19 nM
[Sar][Sar]ACP[1Nal]G[Aib]FWCP[Tle]N[hArg]PGC (linker 4-11-18 via TBMB) [Bicycle Compound Number 136 (TBMB scaffold)] | 15 nM | 23 nM | –
AEGLPCPWGPFWCPVNRPGCA (linker 6-13-20 via TBMB (inferred), also called Compound 55) [Bicycle Compound Number 55 (TBMB scaffold)] | 6.15 nM | 11.3 nM | –
B4 | 6.8 nM | 11 nM | –
ADVHCPWGPFWCPVNRPGCA (linker 5-12-19 via TBMB (inferred), also called Compound 57) [Bicycle Compound Number 57 (TBMB scaffold)] | 1.2 nM | 0.48 nM | –
[Sar][Sar]ACP[1Nal]GPF[1Nal]CPVNRPGC (linker 4-11-18 via TBMB, also called Compound 120) [Bicycle Compound Number 120 (TBMB scaffold)] | 0.98 nM | 1.4 nM | –
AHDVPCPWGPFWCPVNRPGCA (linker 6-13-20 via TBMB (inferred), also called Compound 59) [Bicycle Compound Number 59 (TBMB scaffold)] | – | 0.54 nM | –
[Sar][Sar]ACPWGPFWCPVNR[Aib]GC (linker 4-11-18 via TBMB, also called Compound 110) [Bicycle Compound Number 110 (TBMB scaffold)] | 140 nM | 75 nM | –
Ac-[Sar][Sar]A[dD]VTCP[1Nal]G[Aib]F[1Nal]CP[Tle]N[hArg]PGC (linker 7-14-21 via TBMB) [Bicycle Compound 182] | – | – | 1.16 nM
[Sar][Sar]ACPWGPFWCP[Tle]NRPGC (linker 4-11-18 via TBMB, also called Compound 100) [Bicycle Compound Number 100 (TBMB scaffold)] | 112 nM | 58.3 nM | –
[Sar][Sar]ACPWGPF[1Nal]CPVNRPGC (linker 4-11-18 via TBMB′, also called Compound 96) [Bicycle Compound Number 96 (TBMB scaffold)] | 68.1 nM | 31.3 nM | –
B5 | – | 37 nM | –

Binder | Ki [1] | Ki [2] | Ki [3]
B6 | 75 nM | 53 nM | –
[Sar][Sar]ACPWGPAWCPVNRPGC (linker 4-11-18 via TBMB′, also called Compound 83) [Bicycle Compound Number 83 (TBMB scaffold)] | 288 nM | 199 nM | –
[Sar][Sar]ACPWGPFWCPVNRAGC (linker 4-11-18 via TBMB) [Bicycle Compound Number 104 (TBMB scaffold)] | 194 nM | 124 nM | –
[Sar][Sar]ACPWGPFWCPV[dA]RPGC (linker 4-11-18 via TBMB) [Bicycle Compound Number 102 (TBMB scaffold)] | 312 nM | 317 nM | –
[Sar][Sar]ACPWGPFWCPVNRPAC (linker 4-11-18 via TBMB) [Bicycle Compound Number 111 (TBMB scaffold)] | 238 nM | 108 nM | –
[Sar][Sar]ACPWGPFWCPVNRP[dA]C (linker 4-11-18 via TBMB) [Bicycle Compound Number 112 (TBMB scaffold)] | – | 89 nM | –
B7 | 2 nM | 3.65 nM | –
B8 | 8.7 nM | 7.7 nM | –
B9 | 15 nM | 23 nM | –
[Sar][Sar]ACPWGPFWCPVN[hArg]PGC (linker 4-11-18 via TBMB) [Bicycle Compound Number 103 (TBMB scaffold)] | 169 nM | 126 nM | –
ACPWGPFWCPVNRPGCA (linker 2-9-16 via TBMB, also called Compound 69) [Bicycle Compound Number 69 (TBMB scaffold)] | 70.1 nM | 107 nM | –
[Sar][Sar]ACP[1Nal]GPFWCPVN[hArg]PGC (linker 4-11-18 via TBMB, also called Compound 122) [Bicycle Compound Number 122 (TBMB scaffold)] | 8 nM | 9.55 nM | –
[Sar][Sar]ACP[1Nal]GPFWCPVN[hArg]P[dA]C (linker 4-11-18 via TBMB) [Bicycle Compound Number 134 (TBMB scaffold)] | 6.15 nM | 1.2 nM | –
B10 | 3.7 nM | 14 nM | –
[Sar][Sar]ACPWGP[4Pal]WCPVNRPGC (linker 4-11-18 via TBMB′, also called Compound 84) [Bicycle Compound Number 84 (TBMB scaffold)] | 81.5 nM | 33.5 nM | –
B11 | 1.64 nM | 12.5 nM | –
[Sar][Sar]ACP[1Nal]GPFWCPVNRP[dA]C (linker 4-11-18 via TBMB) [Bicycle Compound Number 116 (TBMB scaffold)] | 3.2 nM | 2.95 nM | –
[Sar][Sar]ACPWGPFWCPVNR[Hyp]GC (linker 4-11-18 via TBMB) [Bicycle Compound Number 107 (TBMB scaffold)] | 85.8 nM | 48.7 nM | –
[Sar][Sar]AC[Aib][1Nal]GPFWCPVNRPGC (linker 4-11-18 via TBMB) [Bicycle Compound Number 113 (TBMB scaffold)] | 6.6 nM | 10 nM | –
B12 | – | 26 nM | –
[Sar][Sar]AC[Aib][1Nal]GPFWCPVNRP[dA]C (linker 4-11-18 via TBMB) [Bicycle Compound Number 125 (TBMB scaffold)] | 0.61 nM | 6.4 nM | –
